Test results as given in US7834144B2 (priority 2005, dated 2010).
Several values for one entry are separate records, joined by “and”; a condition that tells them apart may be missing. Equal entries are not always repeated. Where two headings read alike, the source gives them in different places. Where no end group is shown, it is not given here. [ ]: non-standard residue; d: D form. Nab = not defined here; Nbn = not defined here

Columns and labels:
[1] = molecular target: T1, PrPc (Homo sapiens, UniProt P04156)
[2] = molecular target: T2, PrP^Sc (Homo sapiens, UniProt P04156); settings: Table 16
[3] = molecular target: T2, PrP^Sc; settings: Table 15
[4] = molecular target: T2, PrP^Sc
[5] = molecular target: T2, PrP^Sc; remark: listed apart in the source
[6] = molecular target: T1, PrPc; settings: for LU, Pulldown, PrPC / pg, Pulldown, PrPC: 3M GdnSCN; for pg, Pulldown, PrPC: rPrP standard curve
[7] = molecular target: T1, PrPc; settings: Table 15
[8] = molecular target: T2, PrP^Sc; remark: listed apart in the source
[9] = molecular target: T2, PrP^Sc; settings: folded PrP^Sc pulled down by XIIb
[10] = molecular target: T1, PrPc; format: binding
[11] = molecular target: T2, PrP^Sc; remark: listed apart in the source
[12] = molecular target: T2, PrP^Sc; format: binding
[13] = molecular target: T1, PrPc; settings: Table 16
[14] = 50 μl GdnSCN 3M, pH 5.9, 50 μl NaHCO3, final pH 8.5
[15] = H3PO4 (50 μl) 0.00007M, pH 4, NaOH (25 μl) 0.0031N
[16] = H3PO4 (50 μl) 0.00075M, pH 3, NaOH (25 μl) 0.031N
[17] = H3PO4 (50 μl) 0.12M, pH 2, NaOH (25 μl) 0.31N
[18] = H3PO4 (50 μl) 0.5M, pH 1, NaOH (25 μl) 3.1N
[19] = NaOH (50 μl) 0.0001M, pH 10, NaH2PO4 (20 μl) 0.0003M
[20] = NaOH (50 μl) 0.001M, pH 11, NaH2PO4 (20 μl) 0.003M
[21] = NaOH (50 μl) 0.1M, pH 12, NaH2PO4 (20 μl) 0.03M
[22] = NaOH (50 μl) 0.1M, pH 13, NaH2PO4 (20 μl) 0.3M
[23] = 15 μl GdnSCN 3M, pH 5.9, 210 μl H20, final pH 6.0
[24] = vCJD 10 nL BH/asy, 3F4 capture, C2-AP detection
[25] = vCJD 10 nL BH/asy, C17 capture, C2-AP detection
[26] = 70 ul plasma (70%) + 50 nl 10% normal BH
[27] = Table 7, covalently bound to magnetic beads, 70% human plasma

With “Peptoid Reagent XIIb: peptoid reagent comprising SEQ ID NO: 240, Nab-Nab-Nab-Nbn-Nab-Nbn, covalently bound to magnetic beads ([Nab][Nab][Nab][Nbn][Nab][Nbn]; reading uncertain; also: covalently bound to magnetic beads, printed as Nab-Nab-Nab-Nbn-Nab-Nbn)” the “Nomal BH (RLU) ave, Pulldown” value ([1]; 10 nL of 10% normal BH in 50% pooled normal human plasma, XIIb-beads) was 9.9 RLU, the “No BH (RLU) ave, Pulldown” value ([1]; no BH, 50% pooled normal human plasma, XIIb-beads (background)) was 9.0 RLU and the “AVE vCJD + Plasma” value [2, 14] was 60.5. For the same substance, the “AVE vCJD + Plasma” value ([2]; 100 μl TBST, pH 7.5) was 2.2, the S/N ([2]; 100 μl TBST, pH 7.5) was 1 and the S/N ([2]; H3PO4 0.00007M, pH 4) was 1. For the same substance, the S/N ([2]; H3PO4 0.00075M, pH 3) was 1, the S/N ([2]; H3PO4 0.12M, pH 2) was 2 and the S/N ([2]; H3PO4 0.5M, pH 1) was 5. The “AVE vCJD + Plasma” value [2, 15] was 7.6, the “AVE vCJD + Plasma” value [2, 16] was 21.8 and the “AVE vCJD + Plasma” value [2, 17] was 14.6. For the same substance, the “AVE vCJD + Plasma” value [2, 18] was 57.1, the S/N ([2]; NaOH 0.0001M, pH 10) was 1 and the S/N ([2]; NaOH 0.001M, pH 11) was 2. For the same substance, the S/N ([2]; NaOH 0.1M, pH 12) was 1, the S/N ([2]; NaOH 0.1M, pH 13) was 7 and the “AVE vCJD + Plasma” value [2, 19] was 2.8. For the same substance, the “AVE vCJD + Plasma” value [2, 20] was 8.8, the “AVE vCJD + Plasma” value [2, 21] was 7.3 and the “AVE vCJD + Plasma” value [2, 22] was 36.9. The S/N ([3]; 15 μl GdnSCN 3M, pH 5.9) was 11, the “AVE vCJD + Plasma” value [3, 23] was 430.4 and the “AVE vCJD + Plasma” value ([3]; 70 μl TBST, pH 7.5) was 25.5. The S/N ([3]; 70 μl TBST, pH 7.5) was 2, the S/N ([3]; H3PO4 0.00007M, pH 4) was 1 and the S/N ([3]; H3PO4 0.00075M, pH 3) was 1. The S/N ([3]; H3PO4 0.12M, pH 2) was 1, the S/N ([3]; H3PO4 0.5M, pH 1) was 9 and the “AVE vCJD + Plasma” value [3, 15] was 27.0. For the same substance, the “AVE vCJD + Plasma” value [3, 16] was 26.6, the “AVE vCJD + Plasma” value [3, 17] was 122.5 and the “AVE vCJD + Plasma” value [3, 18] was 264.0. It also gave a S/N ([3]; NaOH 0.0001M, pH 10) of 0, a S/N ([3]; NaOH 0.001M, pH 11) of 1 and a S/N ([3]; NaOH 0.1M, pH 12) of 5. For the same substance, the S/N ([3]; NaOH 0.1M, pH 13) was 30, the “AVE vCJD + Plasma” value [3, 19] was 34.8 and the “AVE vCJD + Plasma” value [3, 20] was 11.8. The “AVE vCJD + Plasma” value [3, 21] was 76.1, the “AVE vCJD + Plasma” value [3, 22] was 458.1 and the “Avg LU, 3F4 Plate” value ([4]; vCJD 0 nL BH/asy (background)) was 4.55 LU. For the same substance, the “Avg LU, C17 Plate” value ([4]; vCJD 0 nL BH/asy (background)) was 45.56 LU, the “S/N, 3F4 Plate” value ([4]; vCJD 0 nL BH/asy (background)) was 1.0 and the “S/N, C17 Plate” value ([4]; vCJD 0 nL BH/asy (background)) was 1.0. The “Avg LU, 3F4 Plate” value ([4]; vCJD 1 nL BH/asy) was 8.90 LU, the “Avg LU, C17 Plate” value ([4]; vCJD 1 nL BH/asy) was 50.75 LU and the “S/N, 3F4 Plate” value ([4]; vCJD 1 nL BH/asy) was 2.0. The “S/N, C17 Plate” value ([4]; vCJD 1 nL BH/asy) was 1.1, the “Avg LU, 3F4 Plate” value ([4]; vCJD 5 nL BH/asy) was 19.34 LU and the “Avg LU, C17 Plate” value ([4]; vCJD 5 nL BH/asy) was 74.71 LU. For the same substance, the “S/N, 3F4 Plate” value ([4]; vCJD 5 nL BH/asy) was 4.3, the “S/N, C17 Plate” value ([4]; vCJD 5 nL BH/asy) was 1.6 and the “S/N, 3F4 Plate” value ([4]; vCJD 10 nL BH/asy) was 13.2. The “S/N, C17 Plate” value ([4]; vCJD 10 nL BH/asy) was 2.7, the “Avg LU, 3F4 Plate” value [4, 24] was 60.07 LU and the “Avg LU, C17 Plate” value [4, 25] was 124.18 LU. The “vCJD BH (RLU) ave, Pulldown” value ([5]; 10 nL of 10% vCJD BH in 50% pooled normal human plasma, XIIb-beads, 0.1N NaOH) was 53.0 RLU, the pulldown efficiency ([5]; pulldown signal vs directly GdnSCN-denatured 10 nL 10% vCJD sample) was roughly 100% and the “LU, Pulldown, PrPC” value [6, 26] was 25.6 LU. The “pg, Pulldown, PrPC” value [6, 26] was 7.3 pg, the “LU, Pulldown, PrPC” value ([6]; 70 ul plasma (70%)) was 23 LU and 23.3 LU and the “pg, Pulldown, PrPC” value ([6]; 70 ul plasma (70%)) was 6.0 pg. The “PrP^C bound by peptoid” value ([6]; plasma containing about 488 pg of PrP^C) was 7 pg, the “AVE Plasma” value [7, 23] was 37.7 and the “AVE Plasma” value ([7]; 70 μl TBST, pH 7.5) was 11.8. The “AVE Plasma” value [7, 15] was 26.8, the “AVE Plasma” value [7, 16] was 25.8 and the “AVE Plasma” value [7, 17] was 92.7. The “AVE Plasma” value [7, 18] was 30.4, the “AVE Plasma” value [7, 19] was 197.6 and the “AVE Plasma” value [7, 20] was 14.6. The “AVE Plasma” value [7, 21] was 16.1, the “AVE Plasma” value [7, 22] was 15.1 and the “enrichment of PrP^Sc over PrP^C” value ([8]; 47 pg PrP^Sc pulled down vs 7 pg of about 488 pg PrP^C) was no less than 70 fold. For the same substance, the increase in signal ([8]; 0.05 μl vCJD BH spiked into 70 μl plasma, versus background) was “four fold increase in signal”, the “LU, Pulldown, PrPSc” value ([8]; 70 ul plasma (70%) + 50 nl 10% vCJD BH, 3M GdnSCN) was 97.1 LU and the “pg, Pulldown, PrPSc” value ([8]; 70 ul plasma (70%) + 50 nl 10% vCJD BH, 3M GdnSCN, rPrP standard curve) was 47 pg and 47.1 pg. For the same substance, the “GdnHCl1/2 (GdnHCl concentration at half-maximal denaturation)” value ([9]; sCJD brain homogenate) was 2.0 M, the “GdnHCl1/2 (GdnHCl concentration at half-maximal denaturation)” value ([9]; vCJD brain homogenate) was 1.6 M and the Mean binding ([10]; Table 10, 15 nL 10% normal human brain homogenate, 70% human plasma, covalently attached to beads) was 13.2. For the same substance, the Mean binding ([10]; Table 11, TBSTT with 70% Human Plasma) was 269.5, the Mean binding ([10]; Table 11, TBSTT with 70% Human Plasma containing 20 nL 10% normal human brain homogenate) was 306.4 and the “Avg LU, 3F4 Beads” value ([11]; vCJD 0 nL BH/asy (background)) was 1.62 LU. The “Avg LU, C17 Beads” value ([11]; vCJD 0 nL BH/asy (background)) was 11.84 LU, the “S/N, 3F4 Beads” value ([11]; vCJD 0 nL BH/asy (background)) was 1.0 and the “S/N, C17 Beads” value ([11]; vCJD 0 nL BH/asy (background)) was 1.0. For the same substance, the “Avg LU, 3F4 Beads” value ([11]; vCJD 1 nL BH/asy) was 3.11 LU, the “Avg LU, C17 Beads” value ([11]; vCJD 1 nL BH/asy) was 16.53 LU and the “S/N, 3F4 Beads” value ([11]; vCJD 1 nL BH/asy) was 1.9. For the same substance, the “S/N, C17 Beads” value ([11]; vCJD 1 nL BH/asy) was 1.4, the “Avg LU, 3F4 Beads” value ([11]; vCJD 5 nL BH/asy) was 2.25 LU and the “Avg LU, C17 Beads” value ([11]; vCJD 5 nL BH/asy) was 26.08 LU. For the same substance, the “S/N, 3F4 Beads” value ([11]; vCJD 5 nL BH/asy) was 1.4, the “S/N, C17 Beads” value ([11]; vCJD 5 nL BH/asy) was 2.2 and the “S/N, 3F4 Beads” value ([11]; vCJD 10 nL BH/asy) was 1.7. The “S/N, C17 Beads” value ([11]; vCJD 10 nL BH/asy) was 3.5, the “Avg LU, 3F4 Beads” value [11, 24] was 2.83 LU and the “Avg LU, C17 Beads” value [11, 25] was 41.86 LU. The Mean [12, 27] was 174.3, the “Mean (% of 68)” value [12, 27] was 126.4% and the Mean binding ([12]; Table 10, 0.833 nL human vCJD 10% brain homogenate, 70% human plasma, covalently attached to beads) was 49.2. It also gave a Mean binding ([12]; Table 10, 2.5 nL human vCJD 10% brain homogenate, 70% human plasma, covalently attached to beads) of 57.3, a Mean binding ([12]; Table 10, 7.5 nL human vCJD 10% brain homogenate, 70% human plasma, covalently attached to beads) of 121.1 and a Mean binding ([12]; Table 11, TBSTT with 70% Human Plasma containing 20 nL 10% human CJD brain homogenate) of 1390.8. For the same substance, the “Mean (% of Control)” value ([12]; Table 13, Control Human Plasma) was 100.0%, the “Mean (% of Control)” value ([12]; Table 13, Human Plasma lot KC011886) was 132.78% and the “Mean (% of Control)” value ([12]; Table 13, Human Plasma lot KC011892) was 127.51%. The “Mean (% of Control)” value ([12]; Table 13, Human Plasma lot KC28719) was 126.03%, the “Mean (% of Control)” value ([12]; Table 13, Human Plasma lot KC032907) was 125.02% and the Mean ([12]; Table 13, bound directly to magnetic beads, Control Human Plasma) was 154.99. For the same substance, the Mean ([12]; Table 13, bound directly to magnetic beads, Human Plasma lot KC011886) was 205.80, the Mean ([12]; Table 13, bound directly to magnetic beads, Human Plasma lot KC011892) was 197.63 and the Mean ([12]; Table 13, bound directly to magnetic beads, Human Plasma lot KC28719) was 195.33. For the same substance, the Mean ([12]; Table 13, bound directly to magnetic beads, Human Plasma lot KC032907) was 193.77, the “AVE Plasma” value [13, 14] was 5.5 and the “AVE Plasma” value ([13]; 100 μl TBST, pH 7.5) was 2.2. For the same substance, the “AVE Plasma” value [13, 15] was 8.7, the “AVE Plasma” value [13, 16] was 19.9 and the “AVE Plasma” value [13, 17] was 8.0. The “AVE Plasma” value [13, 18] was 11.9, the “AVE Plasma” value [13, 19] was 3.1 and the “AVE Plasma” value [13, 20] was 3.6. For the same substance, the “AVE Plasma” value [13, 21] was 5.1 and the “AVE Plasma” value [13, 22] was 5.2.
